Reference: patent US20240287161A1 (NATIONAL UNIVERSITY CORPORATION TOTTORI UNIVERSITY, published 2024)

Assays:
[1] = target: T1, MERS-CoV trimeric S protein (amino acids 13-1296) with T4 foldon, histidine tag and strep-tag (MERS-CoV, UniProt K9N5Q8 16-1293); assay: ELISA on coated S-trimeric antigen, anti-human IgG-HRP [Human IgG1, NT-193]
[2] = target: T1, MERS-CoV trimeric S protein (amino …); assay: ELISA on coated S-trimeric antigen, anti-human IgG-HRP [Human IgG3, NT-193]
[3] = target: T1, MERS-CoV trimeric S protein (amino …); assay: ELISA on coated S-trimeric antigen, anti-human IgG-HRP [Human IgG1, NT-108]

B1: NT-193 (recombinant human IgG1/kappa antibody) (antibody, V domains shown)
VH: EVQLQQWGAGLLKPSETLSLTCAVYGGSFSGYYWSWIRQPPGKGLEWIGEINHSGSTNYNPSLKSRVTISVDTSKNQFSLKLSSVTAADTAVYYCARGWDLDYYYGMDVWGQGTTVTVSS
VL: DIRMTQSPSAMSASVGDRVTVTCRASQGIGNYLAWFQLKPGKVPKRLIYAASSLQSGVPARFSGGGSGTEFTLTISSLQPEDFATYYCLQHGFLPWTFGQGTKLEIK
- binding result [1]: no binding (tested: 1000 ng/ml)

B2: NT-193, human IgG3 subclass (antibody, V domains shown)
VH: EVQLQQWGAGLLKPSETLSLTCAVYGGSFSGYYWSWIRQPPGKGLEWIGEINHSGSTNYNPSLKSRVTISVDTSKNQFSLKLSSVTAADTAVYYCARGWDLDYYYGMDVWGQGTTVTVSS
VL: DIRMTQSPSAMSASVGDRVTVTCRASQGIGNYLAWFQLKPGKVPKRLIYAASSLQSGVPARFSGGGSGTEFTLTISSLQPEDFATYYCLQHGFLPWTFGQGTKLEIK
- binding result [2]: no binding (tested: 1000 ng/ml)

B3: NT-108 (recombinant human IgG1/kappa antibody) (antibody, V domains shown)
VH: EVQLQQSGPGLVKPSQTLSLTCSISGDSVSSNSAAWNWIRQSPSRGLEWLGRTYYRSKWYNDYAGTVKSRIAINPDTSKNQFSLHLNSVTPEDTAVYFCARVISVAGYAFDIWGQGTMVTVSS
VL: EIVLTQSPGTLSLSPGERATLSCRASQSVSSTFLAWYQQKPGQAPRLLIYGASYMATGIPDRFSGSGSGTDFTLTISRLEPEDFAVYYCQQYGSSLTFGGGTKLEIK
- binding result [3]: no binding (tested: 1000 ng/ml)
